Patent US20190134214A1, “GLP-1 Receptor Ligand Moiety Conjugated Oligonucleotides and Uses Thereof” (published 2019)
Square brackets hold non-standard residues; d marks the D form. Ends that are not written are not given here. Aib = CC(C)(N)C(=O)O

Legend:
[1] = biological target: GLP-1 receptor of mouse primary islets of Langerhans (mouse, UniProt O35659); test: cell-based or functional assay
[2] = biological target: FLAG-tagged GLP1R, stably expressed in HEK 293 cells (LVX-GLP1R cells)
[3] = biological target: FLAG-tagged GLP1R, stably expressed in HEK 293 cells (LVX-GLP1R cells); remark: listed apart in the source
[4] = biological target: human GLP-1 receptor (hGLP1R), stably expressed in HEK293 cells (hGLP1R-HEK) (human, UniProt P43220); test: cell-based or functional assay

B1: GLP-1 peptide conjugated ASO targeted to FOXO1 (ION 913193) (peptide)
peptide: H[Aib]EGTFTSDVSSYLEEQAAKEFIAWLVKGGPSSGAPPPSC-NH2
modifications: not fully specified (residue 40); also: Cys40 disulfide via 3-mercaptopropionate linker to 5'-hexylamino ASO ION 913192
Islet FOXO1 mRNA levels relative to control (RPLP0), percent of untreated, 96 hours, 1 µM [1]: 25%

B2: 5'-GLP-1 peptide conjugated ASO targeted to MALAT1 (ION 962963) (peptide)
peptide: H[Aib]EGTFTSDVSSYLEEQAAKEFIAWLVKGGPSSGAPPPSC-NH2
modifications: not fully specified (residue 40); also: Cys40 disulfide to 3-mercaptopropionate linker
IC50 of MALAT-1 expression in GLP1R HEK cells [2]: 0.35 µM

B3: GLP-1 conjugated MALAT1 ASO (ISIS 816385) (peptide)
peptide: H[Aib]EGTFTSDVSSYLEEQAAKEFIAWLVKGGPSSGAPPPSC-NH2
modifications: not fully specified (residue 40); also: Cys40 disulfide via 3-mercaptopropionate linker to 5'-hexylamino ASO ISIS 786434
IC50 of MALAT-1 expression in GLP1R HEK cells [2]: 0.26 µM | IC50 of peptide-conjugated ASO activity (MALAT1 RNA) in LVX-GLP1R cells [3]: 0.35 µM | IC50 of inhibition of MALAT1 mRNA in hGLP1R-HEK cells [4]: 0.02 µM
